Reference: paper PMC9481538, “The interaction between LC8 and LCA5 reveals a novel oligomerization function of LC8 in the ciliary-centrosome system” (Scientific Reports, 2022)

Columns and labels:
[1] = target: Dynein light chain LC8 (DYNLL2), 6xHis-tagged (UniProt Q96FJ2); test: SEC; Superose 6 Increase 10/300, DPBS with 200 μM TCEP; LC8 or sLCA5-WT alone; masses estimated from a calibration curve
[2] = target: sLCA5-ΔVQT (human (cDNA library from HEK293)) (UniProt Q86VQ0); test: SEC; Superose 6 Increase 10/300, DPBS with 200 μM TCEP; 30 μM LCA5 construct with 150 μM LC8, injected immediately or after 60 min at 37 °C; fractions analysed by SDS-PAGE and densitometry
sLCA5-ΔVQT (human (cDNA library from HEK293)), sequence (Q86VQ0 other isoform, or with tags, fused parts or gaps mutant): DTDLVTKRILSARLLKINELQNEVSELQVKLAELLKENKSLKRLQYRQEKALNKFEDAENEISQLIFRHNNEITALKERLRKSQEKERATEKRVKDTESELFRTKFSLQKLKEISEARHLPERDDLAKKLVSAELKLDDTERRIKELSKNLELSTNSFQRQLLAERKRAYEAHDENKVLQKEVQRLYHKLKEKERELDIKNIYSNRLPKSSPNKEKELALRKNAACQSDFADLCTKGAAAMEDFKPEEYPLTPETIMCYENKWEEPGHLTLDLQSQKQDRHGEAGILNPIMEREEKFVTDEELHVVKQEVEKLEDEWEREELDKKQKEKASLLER

[3] = target: sLCA5-ΔCQS (human (cDNA library from HEK293)) (UniProt Q86VQ0); test: as above
sLCA5-ΔCQS (human (cDNA library from HEK293)), sequence (Q86VQ0 other isoform, or with tags, fused parts or gaps mutant): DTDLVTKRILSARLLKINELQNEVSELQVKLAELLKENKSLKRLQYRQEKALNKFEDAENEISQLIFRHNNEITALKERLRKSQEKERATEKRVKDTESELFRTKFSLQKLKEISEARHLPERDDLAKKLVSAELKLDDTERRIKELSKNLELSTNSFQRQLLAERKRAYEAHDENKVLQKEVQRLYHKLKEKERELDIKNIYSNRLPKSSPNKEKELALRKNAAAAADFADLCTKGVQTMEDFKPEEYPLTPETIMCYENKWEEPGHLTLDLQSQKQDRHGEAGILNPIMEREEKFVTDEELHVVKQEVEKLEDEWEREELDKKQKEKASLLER

[4] = target: sLCA5-WT (LCA5 96-430 with N-terminal MBP and C-terminal 6xHis) (human (cDNA library from HEK293)) (UniProt Q86VQ0); test: as above
sLCA5-WT (LCA5 96-430 with N-terminal MBP and C-terminal 6xHis) (human (cDNA library from HEK293)), sequence (Q86VQ0 96-430): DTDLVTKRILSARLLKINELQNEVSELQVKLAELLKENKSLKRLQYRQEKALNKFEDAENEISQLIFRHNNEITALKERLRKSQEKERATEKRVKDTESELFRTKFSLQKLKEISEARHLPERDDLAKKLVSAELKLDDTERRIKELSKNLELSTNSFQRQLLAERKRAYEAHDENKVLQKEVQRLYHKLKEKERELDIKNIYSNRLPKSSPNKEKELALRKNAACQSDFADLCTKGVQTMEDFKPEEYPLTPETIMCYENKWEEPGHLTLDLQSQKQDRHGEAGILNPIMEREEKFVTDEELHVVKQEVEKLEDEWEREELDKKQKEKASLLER

[5] = target: FITC-labelled BMF (Bcl-2-modifying factor) peptide (…); test: fluorescence polarisation; direct titration of 50 nM FITC-BMF peptide with LC8; 25 °C, PBS, 2 mM TCEP, 0.05% Brij
[6] = target: sLCA5-WT (LCA5 96-430 with N-terminal MBP and C-terminal 6xHis) (human (cDNA library from HEK293)) (UniProt Q86VQ0)
[7] = target: sLCA5-ΔVQT (human (cDNA library from HEK293)) (UniProt Q86VQ0); test: ITC; MBP-fused LCA5 construct in the cell, LC8 injected, 37 injections of 1 μl; 37 °C, PBS pH 7.4, 1 mM TCEP
[8] = target: sLCA5-ΔCQS (human (cDNA library from HEK293)) (UniProt Q86VQ0); test: as above
[9] = target: sLCA5-WT (LCA5 96-430 with N-terminal MBP and C-terminal 6xHis) (human (cDNA library from HEK293)) (UniProt Q86VQ0); test: as above

Dynein light chain LC8 (DYNLL2), 6xHis-tagged (from UniProt Q96FJ2 1-89) (natural protein), sequence (Q96FJ2 whole entry): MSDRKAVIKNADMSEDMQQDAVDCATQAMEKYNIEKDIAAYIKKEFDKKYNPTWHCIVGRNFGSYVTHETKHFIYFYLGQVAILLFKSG

For “Dynein light chain LC8 (DYNLL2), 6xHis-tagged (from UniProt Q96FJ2 1-89) (natural protein)”, which stoichiometry N [1] is on record?
Its stoichiometry N is 2.

And the molar ratio LCA5:LC8 in the earlier eluted part of the LCA5 peak [2]?
The molar ratio LCA5:LC8 in the earlier eluted part of the LCA5 peak was 2 LCA5:LC8.

What about the molar ratio LCA5:LC8 in the later part of the LCA5 peak [2] of the same substance?
The molar ratio LCA5:LC8 in the later part of the LCA5 peak was 1 LCA5:LC8.

And the molar ratio LCA5:LC8 in the LCA5 peak [3]?
The molar ratio LCA5:LC8 in the LCA5 peak was 2 LCA5:LC8.

And the molar ratio sLCA5:LC8 in the oligomeric (void) fraction [3]?
The molar ratio sLCA5:LC8 in the oligomeric (void) fraction was 1 LCA5:LC8.

And the molar ratio LCA5:LC8 in the LCA5 peak [4]?
Its molar ratio LCA5:LC8 in the LCA5 peak is 1 LCA5:LC8.

And the molar ratio LCA5:LC8 in the intermediate fraction [4]?
Its molar ratio LCA5:LC8 in the intermediate fraction is 1 LCA5:LC8.

And the molar ratio sLCA5:LC8 in the oligomeric (void) fraction [4]?
The molar ratio sLCA5:LC8 in the oligomeric (void) fraction was 0.5 LCA5:LC8.

What about the LC8 concentration at 80% saturation of the BMF peptide [5] of the same substance?
Its LC8 concentration at 80% saturation of the BMF peptide is 12 µM.

What about the increase in the melting temperature of sLCA5-WT in complex with LC8 (CD thermal denaturation at 222 nm, 10-80 °C; 1.2 μM LCA5, 6 μM LC8) [6] of the same substance?
Its increase in the melting temperature of sLCA5-WT in complex with LC8 (CD thermal denaturation at 222 nm, 10-80 °C; 1.2 μM LCA5, 6 μM LC8) is 5 °C.

And the dH [7]?
The dH was -12.5 kcal/mol.

And the stoichiometry N [7]?
Its stoichiometry N is 2 LCA5:LC8.

What about the dH [8] of the same substance?
The dH was -8.62 kcal/mol.

What about the stoichiometry N [8] of the same substance?
Its stoichiometry N is 2 LCA5:LC8.

What about the dH [9] of the same substance?
The dH was -11.8 kcal/mol.

What about the stoichiometry N [9] of the same substance?
The stoichiometry N was 1 LCA5:LC8.
